First the molecules themselves.
B2: Human PHOX2B transcription factor fragment comprising 26 alanine residues (XS26) (other)
chain: GPGGPGGEPGKGGAAAAAAAAAAAAAAAAAAAAAAAAAAGGLAAAGGPGQGWAPGPGPITSIPDSLGGPFASVLSSLQRPNGAKAALVKSSMF
notes: C-terminal fragment of human PHOX2B (XS construct, 228-314 in wild-type numbering) with the polyAla tract expanded from 20 to 26 alanines (241-266); Made in E. coli as a thioredoxin-His6-TEV fusion and cleaved with TEV; 15N/13C-labelled for NMR; For microscopy a C315 mutant tagged with ATTO-488 or ATTO-565 was mixed 1:400-1:600 with the unlabelled protein; also called +6 Ala variant; expanded …

The target in series [1] is Human PHOX2B transcription factor fragment comprising 26 alanine residues (XS26) (human) (UniProt Q99453). Description: 13C-HSQC NMR titration, 0.1 mM XS26, 1:1 molar ratio, 25°C.
Series [2] has the same target. In words: CACO NMR, 0.225 mM XS26 incubated 48 h at 25°C with 0.45 mM HSP70 (1:2).
Series [3] deals with the molecule itself. In words: 15N spin relaxation, self-association.
Series [4] addresses B2. Description: confocal fluorescence microscopy, colocalisation in condensates.
Series [5] concerns the molecule itself. Description: 15N spin relaxation, overall correlation time, self-association.

Regarding “Human HSP90β (named HSP90) (from UniProt P08238 1-724)”, in series [1], the decrease of NMR signal intensity, polyAla moieties in disordered conformation is above 50% and the decrease of NMR signal intensity, polyAla tract in α-helical conformation is below 40%.

On to “Human HSP72 (named HSP70) (from UniProt P54652 1-639)”, for which, in series [1], the decrease of NMR signal intensity, polyAla moieties in disordered conformation was above 50% and the decrease of NMR signal intensity, polyAla tract in α-helical conformation was below 20%. This molecule showed a decrease of the population of nascent disordered alanines (CACO signal intensity) in series [2] of 50%.

B1: Human PHOX2B transcription factor fragment comprising 23 alanine residues (XS23) (other)
chain: GPGGPGGEPGKGGAAAAAAAAAAAAAAAAAAAAAAAGGLAAAGGPGQGWAPGPGPITSIPDSLGGPFASVLSSLQRPNGAKAALVKSSMF
notes: XS fragment of human PHOX2B with the polyAla tract expanded from 20 to 23 alanines; Made as a thioredoxin-His6-TEV fusion and cleaved with TEV; also called +3 Ala variant
For B1, in series [3], the binding result was “binds”.

With B2, the binding result in series [3] was “binds”.

B3: Human PHOX2B transcription factor fragment comprising 20 alanine residues (XS20) (other)
chain: GPGGPGGEPGKGGAAAAAAAAAAAAAAAAAAAAGGLAAAGGPGQGWAPGPGPITSIPDSLGGPFASVLSSLQRPNGAKAALVKSSMF
notes: Fragment of residues 228-314 of human PHOX2B, polyAla tract at 241-260; Made as a thioredoxin-His6-TEV fusion and cleaved with TEV; For microscopy a C315 mutant tagged with ATTO-488 or ATTO-565 was mixed 1:400-1:600 with the unlabelled protein; also called wild type PHOX2B fragment; wt PHOX2B (20 alanines)
With B3, the binding result in series [4] and in series [5] was “binds” in each case.

The values above are taken from EP4556905A1 (Agencia Estatal Consejo Superior De Investigaciones …, dated 2025).
